From paper PMC7556403
Values belong to the substance of their own block, whether it stands above or below them.

What was measured:
MBP–APO1 mXT (human) [1] = biological target: MBP–APO1 mXT (human) (UniProt P41238); test: SEC-MALS; MBP–APO1 fusions with Leu, Gln or Ala at position 173; SEC and MALS
MBP–APO1 mXT (human) [2] = biological target: MBP–APO1 mXT (human) (UniProt P41238); test: SEC; MBP–APO1 fusion proteins; SEC in 20 mM HEPES pH 7.5, 500 mM NaCl, 0.5 mM TCEP
[3] = biological target: MBP–APO1 mXT-173Q (human) (UniProt P41238); test: SEC-MALS; MBP–APO1 fusions with Leu, Gln or Ala at position 173; SEC and MALS
[4] = biological target: MBP–APO1 mXT-173L (human) (UniProt P41238); test: as above
MBP–APO1 mSOL (human) = MBP–APO1 mSOL (human) (UniProt P41238); test: SEC; MBP–APO1 fusion proteins; SEC in 20 mM HEPES pH 7.5, 500 mM NaCl, 0.5 mM TCEP

stoichiometry N (MBP–APO1 mXT (human) [1]): 2
stoichiometry N (MBP–APO1 mXT (human) [2]): 2
Substance: MBP–APO1 mXT (from UniProt P41238 15-236) (enzyme)

percent in the dimer peak [3]: 1 to 2%
Substance: MBP–APO1 mXT-173Q (from UniProt P41238 15-236) (enzyme)

stoichiometry N [4]: 2
Substance: MBP–APO1 mXT-173L (from UniProt P41238 15-236) (enzyme)

stoichiometry N (MBP–APO1 mSOL (human)): 2
Substance: MBP–APO1 mSOL (from UniProt P41238 1-236) (enzyme)
